We go through 1 molecule from publication PMC7563477, “N-Terminal Segment of TvCyP2 Cyclophilin from Trichomonas vaginalis Is Involved in Self-Association, Membrane Interaction, and Subcellular Localization” (Biomolecules, 2020).

This test has as its target T1, T. vaginalis cyclophilin 2 (TvCyP2), recombinant with C-terminal His-tag (Trichomonas vaginalis, UniProt A2DLL4 1-186).
T1 construct: TvCyP2 cyclophilin of Trichomonas vaginalis, with its N-terminal segment; secondary structure is described up to residue 184; theoretical molecular weight 20.947 kDa; 15N-labelled for the NMR experiments; Cloned into pET-29b by NdeI and XhoI; also called TvCyP2_apo1; TvCyP2_apo2; source: E. coli BL21(DE3), purified (Q-sepharose flow-through, Ni-NTA; SEC superdex-75 for crystallization and …)
Nature of the test: NMR titration; 2D 1H-15N HSQC of the 15N-labelled protein without and with unlabelled TvCyP2(3-18) peptide (molar ratio 1:5); 800 MHz, 310 K; 20 mM NaH2PO4, 50 mM NaCl, pH 6.0, 10% D2O. To be noted: both partners purified.

B1: TvCyP2_(3–18) peptide (peptide)
peptide: AFFATRVISAPKVTKK
notes: residues 3-18 of TvCyP2 of Trichomonas vaginalis (N-terminal segment); source: synthetic peptide, HPLC-grade, bought: Yao-Hong Biotechnology
For the molecule B1, the binding result is “binds”.
